In publication PMC10580935:

Legend:
Test in all cases: EMSA
Conditions in all cases: 20 mM Tris-HCl pH 8.0, 1 mM DTT, 50 mM KCl, 5 mM MgCl2, 0.05 mg/mL BSA, 10% glycerol
[1] = molecular target: T1, Zur (Mycobacterium bovis BCG) (UniProt P9WN85)
T1 sequence: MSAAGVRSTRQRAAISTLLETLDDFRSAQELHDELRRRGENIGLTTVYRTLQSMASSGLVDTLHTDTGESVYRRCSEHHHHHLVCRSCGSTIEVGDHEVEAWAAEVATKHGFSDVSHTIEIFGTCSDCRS

[2] = molecular target: T2, IdeR (Mycobacterium bovis BCG) (UniProt P9WMH1)
T2 sequence: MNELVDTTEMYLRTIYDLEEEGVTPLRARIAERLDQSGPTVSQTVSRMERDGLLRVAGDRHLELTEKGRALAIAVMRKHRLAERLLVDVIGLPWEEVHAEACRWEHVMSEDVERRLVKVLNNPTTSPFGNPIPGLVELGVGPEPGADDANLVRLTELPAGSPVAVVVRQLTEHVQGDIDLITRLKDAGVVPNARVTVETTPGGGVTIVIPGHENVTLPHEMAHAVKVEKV

[3] = molecular target: T3, IdeR;Zur (Mycobacterium bovis BCG;Mycobacterium bovis BCG) (UniProt P9WMH1+P9WN85)
T3 sequence 1: T2 sequence
T3 sequence 2: T1 sequence

## ACGTCAGCGTCTACCTTGCCATTTACCCGAGACGCGACGGGGGAAGCGGCCACCATGCCAATGTCATCACGCTCCACGCCTCCGCTGTCTCCTTCACCTACGCCCGCCATCGGCCGATCCGCCTGAACTTTGCCCCGAAGTTAGCATTGCATAAGCTAACTGTCGAGGCGACCGCGACCAATCGACTCGGCCCTGCGGCCAAGCTTTTAGGCACGGCTGGCAAGATCATGACCGATACTCCATTTCGTTGGTAGCCCGATATGCAGAGTGTAG (double strand) [esx-3p2]
[1]
  binding: no binding
[2]
  binding: binds
[3]
  binding: binds
